Publication doi:10.1101/2022.05.12.491222

Columns and labels:
[1] = biological target: LARGE2ΔTM (UniProt Q8N3Y3); assay: SAXS
[2] = biological target: LARGE2ΔTM (UniProt Q8N3Y3); assay: SEC-MALS
[3] = biological target: LARGE1ΔTM (UniProt O95461); assay: SAXS
[4] = biological target: LARGE1ΔTM (UniProt O95461); assay: SEC-MALS
[5] = biological target: LARGE1ΔTM treated with PNGase F (UniProt O95461); assay: SEC-MALS
[6] = biological target: LARGE2ΔTM treated with PNGase F (UniProt Q8N3Y3); assay: SEC-MALS

LARGE2ΔTM (from UniProt Q8N3Y3 1-721) (enzyme)
stoichiometry N [1]: 2 | stoichiometry N [2]: 2

LARGE1ΔTM (from UniProt O95461 34-756) (enzyme)
stoichiometry N [3]: 2 | stoichiometry N [4]: 2

LARGE1ΔTM treated with PNGase F (from UniProt O95461 34-756) (enzyme)
stoichiometry N [5]: 2

LARGE2ΔTM treated with PNGase F (from UniProt Q8N3Y3 1-721) (enzyme)
stoichiometry N [6]: 2
